Laboratory results published in US20050090643A1.

B1: CVN Gln50 deletion mutant (ΔQ50-CVN), obligate domain-swapped dimer of cyanovirin (protein)
chain: LGKFSQTCYNSAIQGSVLTSTCERTNGGYNTSSIDLNSVIENVDGSLKWPSNFIETCRNTQLAGSSELAAECKTRAQQFVSTKINLDDHIANIDGTLKYE
B2: dimeric wild-type CVN (protein)
chain: LGKFSQTCYNSAIQGSVLTSTCERTNGGYNTSSIDLNSVIENVDGSLKWQPSNFIETCRNTQLAGSSELAAECKTRAQQFVSTKINLDDHIANIDGTLKYE
B3: monomeric wild-type CVN (protein)
chain: B2 chain

Each binder was assayed against viral envelope glycoprotein gp120 of human immunodeficiency virus (HIV-1) (HIV-1) (assay: cell-based or functional assay).

Binder | IC50 in quantitative vaccinia virus-based HIV-1 fusion assay [nM] | average KD from non-linear least squares best fitting of HIV-1 fusion assay titration data to a two-independent site model [nM]
B1 | 9 | 22
B2 | 9 | 21
B3 | 32 | 67
